These results are taken from the DeepSol protein solubility set.

The nature of the data set: soluble on expression in E. coli; label from the status in PepcDB or PDB records.
For “MSLSPPLTLNPEQAVAVASIFEHIHHYQCFLLQGVTGSGKTEVYLHVIAKILEQGKQVLVLVPEIGLTPQLLSRFTARFNHPITVLHSNLNESERQIAWQLAKENKVKMVIGTRSAVFTPLPNLGLIIIDEEHDSSLKQMEGVRYSARDTALMRAHLANIPIILGTATPSLETIHNCKQKKYNLLRLTHKAASTTPLHYQLIDLRSQMVQHGLALPTLKIIENHLLQQNQVLVFINRRGFAPVLLCHQCGWMVDCKACDSHLTLHKQAGQMICHHCGLTQRIPLFCNNCQSKELIPVGSGTQRIYEFLSHQFPDTNVLRIDRDEVRKKNSLNSHLDKINKGEAQLIIGTQMLAKGHHFPRLSLVVVVDADAGFYNQDFRAIEHLGQLLTQVSGRAGRAEHPGQVLIQTYLPDHPLLNLLIQHGYDEFANALLISRQEAEMPPFQFLAVIRAQGRTVSKVDQFLKATKDQIQAHPLTVLGPAPAPLPRKANQHRMQLLIKSPSRKVLKSSLTQLREWLTMNKLSNGIRWNVDVDPMDLSEGHHHHHH”, the “soluble on expression in E. coli” value is “not soluble”.
Regarding “MGSDKIHHHHHHMVRDIDKTTSLHLNNEAQFLCFRLDAEKDAQLYGMNIFKIREIIHYDGEVTEILGGSDGVMLGFLSVRGESIPLVDVKRWLHYNANDPSRDLKECSVKDDHNLVIVCHFSNHSIALKVLKIERIIHKNWTEISAGDKQGINEEGKLSAITRFDEERVVQILDVEKMISDVFPSLKDLDDLTLRCIEAIQSQKLILIAEDSLSALKTLEKIVQTLELRYLAFPNGRELLDYLYEKEHYQQVGVVITDLEMPNISGFEVLKTIKADHRTEHLPVIINSSMSSDSNRQLAQSLEADGFVVKSNILEIHEMLKKTLS”, the “soluble on expression in E. coli” value is “not soluble”.
For “MSFTTKVKEELIHLSTGDNNELAAIIKLSGSLGLAHQSLHLSITTENAKIARYIYSLIEDAYVIVPEIRYHQKTNLRKNRVYTVYVEQGVETILADLKLADSFFGLETGIEPQVLSDDNAGRSYLKGAFLAAGSIRDPESGKYQLEIYSVYLDHAQDLAQLMQKFMLDAKTIEHKSGAVTYLQKAEDIMDFLIIIGAMSCKEDFEAIKLLREARNDINRANNAETANIAKTISASMKTINNIIKIMDTIGLESLPIELQQVAQLRVKHPDYSIQQVADALEFPITKSGVNHRLRKINKIADDL” the value was “not soluble”; for “ASFIEQQVGGSLNEASLAHHIEQVLATNGNLFIGNSLFVRLVDALCKLPEGYPVYTNRGASGIDGLIATMAGIAKASGQPTVGVVGDISALHDLNSISLLSKINHPSILFVINNSGGAIFDMLPVEARVKEQFYRLSHNYEFSQVAAMFGIEYIRPFTWADLKAKLKLAYGRKSATIVEIKVNDQDG”, “not soluble”; for “MGSDKIHHHHHHMPPNFHADTPLAQRMRPTTLDTIIGQEHLLAVGAPLRRLVEQGHLPSIILHGEAGIGKTTIAMLLADAVGRPFHALSALNTGVKQLREVLDSKDSLSFESPVVFIDEIHRFNKAQQDALLGAVESGDITLIGATTENPSFSVNNALLSRCQVYRLEPLTPEQISAVLQRALLEDNVLKQLSIDLQAQQTISQLAHGDARKSLNLLELAIQTADTKQSPIIIDDALVARVAQTALVRYDKDGEQHYDIVSAMIKSVRGSDPDAALYWMARMLVGGEPADFIARRLVILASEDIGNANPNALLLADAALRSVQSIGMPEARIILGQVVVYLATSAKSNSTYNAINAAMSLAEKDASPVPLHLRNGVTKLMRQQGYGQDYVYPHNYPNHYYAQNYLPDKLIGTRFYEFADNQREQHSKQFVDWLKSQAASND”, “not soluble”.
Under “MPDHARMPRNLSSNKIAKTIAGEDLDEEEVLEMDAGQSAREEGRFVFECAWEVANKVGGIYTVLRSKAQISTEELGDQYCMFGPMKDGKWRLEVDPIEPENRTIRAAMKRFQADGFRCMYGRWLIEGYPKVILFDLGSGAVKMNEWKHELFEQCKIGIPHEDIESNDAVILGFMVALFLKHFRESVTSYTPLVVAHFHEWQAGVGLLMTRLWKLDIATVYTTHATLLGRHLCAGGADLYNNLDSFDLDAEAGKRKIYHQYCLERAACQTAHIFTTVSEITGLEAEHFLCRKPDVLTPNGLNVVKFAALHEFQNLHAQNKEKINQFIRGHFHGHLDFDLDKTLYFFTAGRYEFSNKGGDMFIESLARLNHYLKTTSDPRHMGVTVVAFLIYPAPANSFNVESLKGQAVTKQLKEAVDRIKEKVGQRIFDICLQGHLPEPEELMSPADNILLKRCIMSLHNSSLPPICTHNMIRADDPVLESLRRTSLFNKPEDRVKVVFHPEFLSSVSPLIGLDYEDFVRGCHLGVFPSYYEPWGYTPAECTVMGIPSVSTNLSGFGCFMQEHVEDHEQKGIYVIDRRHKAAEESVQELAQVMYDFCGQSRRQRIILRNSNEGLSALLDWQNLGVFYRDCRRLALERLHPDVDKIMRDNEGKVPSAATSRRPSIHSSDGEDDE” stands “not soluble”; under “MGSDKIHHHHHHMSLSRLSIDAFRNIDSAQLAPGAGLNLIYGHNGSGKTSILEAIYFLGMGRSFRSHLSQRVIQNDADCLTLFAVAEGQAGDSRIGLRRHRSGDTEVKIDGEKVKRLSQLAEALPIQVITPESFSLLFEGPSARRQFIDWGAFHASKQFHLAWMNTRRILKQRNQLLRDGASYEHIAFWDKELIRYALEVTAIRNDYVGSLNGVLKGIIGEFLPDVDIRVSFTRGWDSKTDFSELLQSQYARDLAIGHTVSGPHKADLRLRVGNLPAQDALSRGQLKLLVCALRIAQGKLLKQQIDKHSIYLVDDLPSELDAKHRQLLLKELIDTGAQLFVTAIEPSAIVDSLPVPPDRMFHVQAGRVTQTK”, “not soluble”; under “MPRLDLCAKRTTDQCTSRVRLATRKGLTKLLLCSRESSIFKDEDIEQDDLRSSRTPWAALPPPPIKPIADSFRCDALVIGAGITGALVAERLTRQGRQVVIIDRELPSLGSTVASTAMLLWETDRPLFELAQLYNFEKAVRCYRASHHAARGLLALVTDHGIACQMRPRLSLYLAVDDSPKLVRNEYALRSRADLPTLFLDRVELLNRFGIARAGALLSRDAADADPVRLTRGLLDVSLQRGARLLKANAVAYDSAASTVTVGLENGLSIEARHVVLATGYVMPNIVGSTSNQPASSWAIATRRRPNALWPEQALIWEATRNYHYARTTPDGRVIFGGEDDDAIIDPEARAAATPAKVRALKERLKALWPRASTEVAFTWSGAFDTTRDGLPLIGAVPGYRNILAAFGYGGNGITFSFLAAELLGTLLSGGSSPLLDVLALDRDLPANDAPSDSQALEHHHHHH”, “soluble”.
For “MGSDKIHHHHHHMAVITISREMGTGAYQIAREVAKRLKHTLVDGNKIAELAPRYGLDKELLKRVDEKPPVYITAEDRMHAAHLNTIEIIILDCVKQGNVILYGRGAQDLLSDVENILRIRFIAPFEHRVENFSEREWIDPDLARELIRKSDHQRGGFIHFYFNRDWNDSLGYDLTFNTERMSQSAIIESIIAAAKDSRLKEGEERLKQVIDETILAKKVETAFLKSGDIEYIHFRISVSGKVVSFSGHVHSEAEKREAIRLATAVEGVERVEGDLQVLNYKSHKG”, the “soluble on expression in E. coli” value is listed as “not soluble”.
Under “MSLQKPKIAFIDDEPRILRSLKMHFRQSHDVFITTDASELMKYVSEHDVQVVISDQRMPDKQGTEVLRDIKAASPNTLRILLTGYADLNAVIDSVNEGEIYRYITKPWQNDELKQIVNKATEIAQQTQEITQNTEGHHHHHH” stands “not soluble”; under “MAITRESKNGEEFVGEVTFYEGVNMNVVVNFFTGLDHYEYAKLRFAHTAHTPPLIRASSTSASASASTSTSSSRPKKHYLEKNMEHLLKKLDILAFKQTIIESRSPTSDSIHHQDFVSNTDTAEYDDDDTKFF”, “not soluble”; under “MGSDKIHHHHHHENLYFQGMRISANFDGGNIETISLANPDDIQLAIRPDAGGEFYQWFNFRFEATIGKTYTLNILNAGGASYLKGWEDYQAVASYDRQTWFRLPTEYKDGKLSISVELDCEAIQIAYFTPYSYERHLDLISAVQLHPLVSTEHLGLTLDGRDMTLVKVGDDDPSKKSIWITARQHPGETMAEWLVEGLLNQLLDNDCPTSKALLDKANFYIVPNMNPDGSVRGHLRTNAVGANLNREWQTPSLERSPEVYYVVNKMHETGVDLFYDVHGDEGLPYVFLAGCEGIPNYSDKLASLQQDFVAALSLASADFQTEFGYDKDEPGKANLTVACNWVANTFKCLSNTLEMPFKDNANLADPFQGWSPERSVYFGEASLIAMRAVIDKIGQ”, “soluble”.
